As a reminder, the Kd is a measure of binding affinity in units of concentration. Lower therefore signals tighter binding.

Square brackets hold non-standard residues; d marks the D form. Ends that are not written are not given here. pY = N[C@@H](Cc1ccc(OP(=O)(O)O)cc1)C(=O)O

The values that follow come from US20030113828A1 (published 2003).

Assay [1] concerns the target T1, GST-Zap-70(1-337) (human, UniProt P43403 1-337).
T1 construct: range 1-337; also called tandem SH2 domains of Zap-70; not shown: glutathione S-transferase (GST) from pGEX-2T
T1 sequence (looked up): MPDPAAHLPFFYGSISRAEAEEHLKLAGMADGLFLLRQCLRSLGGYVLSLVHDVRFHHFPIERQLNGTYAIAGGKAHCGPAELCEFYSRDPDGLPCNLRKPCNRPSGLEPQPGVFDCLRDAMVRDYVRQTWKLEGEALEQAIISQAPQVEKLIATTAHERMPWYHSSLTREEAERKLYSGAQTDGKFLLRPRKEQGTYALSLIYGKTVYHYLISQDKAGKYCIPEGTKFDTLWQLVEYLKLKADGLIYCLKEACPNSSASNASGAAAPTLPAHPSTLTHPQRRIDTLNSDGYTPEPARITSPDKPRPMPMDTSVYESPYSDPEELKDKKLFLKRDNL
Kind of assay: affinity chromatography / surface plasmon resonance. (In SPR one partner is held on a chip, and binding of the other changes the refractive index at the surface.)

For assay [2], the target named is Syk(6-370) cleaved from GST-Syk(6-370) by thrombin (UniProt P43405 6-370). Description: surface plasmon resonance (BIAcore 3000). How it is done: However integrins are far more abundant than ITAM containing receptor complexes on most cells. For example, Jurkat T cells express ˜80,000 copies of α4β1 (Chen et al. (1999) J Biol Chem 274:13167-13175) and only ˜-12,000 copies of the TCR (Graber et al. (1991) J Immunol 146:2935-2943) on their cell surface.
Experimental procedures, integrin cytoplasmic domain modifications, and data analysis was performed in accordance with procedures described by Yan et al. ((2001) J Biol Chem 276:28164-28170).

The target in another assay is T2, GST-Zap-70(163-254) (human, UniProt P43403 163-254).
T2 construct: also called Zap-70 C-terminal SH2 domain; not shown: glutathione S-transferase (GST) from pGEX-2T
T2 sequence (looked up): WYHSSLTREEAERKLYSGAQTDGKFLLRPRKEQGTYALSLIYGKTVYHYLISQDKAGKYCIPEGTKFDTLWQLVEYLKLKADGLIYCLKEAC
Description: direct binding assay. How it is done: (§1) The regions involved in phosphotyrosine binding are widely separated and in opposite orientation (Hof et al. (1998) Cell 92:441-450).
(§2) For direct binding assays, model peptides (1 mg) were dissolved in 1 ml buffer containing 20 mM Tris (pH 7.9), 500 mM NaCl, and 6 M urea. To this, 50 ul packed His-Bind® Resin (Novagen, Madison, Wis.) was added and the mixture was rotated for 1 hour at room temperature. Immobilized peptides were washed 5× in above buffer without urea, and resuspended in 500 μl buffer containing 20 mM PIPES pH 6.8, 50 mM NaCl, 3 mM MgCl₂, 150 mM sucrose, 50 mM NaF, 40 mM Na₄P₂O₇*10H₂O (buffer A) supplemented with 0.1% TritonX-100 and 3 mM MgCl₂. Purified GST-fusion proteins were added to 0.5 ml buffer A supplemented with 0.1% TritonX-100 and 3 mM MgCl₂. Five μl of total packed resin loaded with various integrin cytoplasmic domain model proteins was added to the GST-fusion protein. The mixture was incubated for 40 minutes at room temperature with continuous rotation. The beads were then washed five times in buffer A with 0.1% TritonX-100 and 3 mM MgCl₂. Bound proteins were eluted by boiling in reducing sample buffer, fractionated by SDS PAGE, and immuno-blotted.

Assay [3] concerns the target T3, tandem SH2 domains of SHP-2 (UniProt Q06124 1-220, limits assumed).
T3 construct: domain: tandem SH2 domains
T3 sequence (looked up): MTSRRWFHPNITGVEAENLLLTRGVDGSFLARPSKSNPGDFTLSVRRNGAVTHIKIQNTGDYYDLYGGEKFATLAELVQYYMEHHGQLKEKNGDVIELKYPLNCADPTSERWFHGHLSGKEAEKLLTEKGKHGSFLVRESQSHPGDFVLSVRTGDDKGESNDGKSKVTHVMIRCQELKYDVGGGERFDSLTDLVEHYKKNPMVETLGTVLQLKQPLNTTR
Kind of assay: direct binding assay. How it is done:
as §1, §2

The target in another assay is T4, GST-Zap-70(1-103) (human, UniProt P43403 1-103).
T4 construct: range 1-103; also called Zap-70 N-terminal SH2 domain; not shown: glutathione S-transferase (GST) from pGEX-2T
T4 sequence (looked up): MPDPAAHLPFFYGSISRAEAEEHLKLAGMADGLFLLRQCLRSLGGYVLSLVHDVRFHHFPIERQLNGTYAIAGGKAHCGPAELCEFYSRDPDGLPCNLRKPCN
Kind of assay: direct binding assay. How it is done:
as §1, §2

A further assay has as its target T5, GST-Syk(163-270) (UniProt P43405 163-270).
T5 construct: also called C-terminal SH2 domain of Syk; not shown: glutathione S-transferase (GST) fusion partner
Kind of assay: direct binding assay. As to the method:
as §1, §2

Assay [4] concerns the target T6, GST fusion of the interdomain A of Syk (UniProt P43405 108-167).
T6 construct: domain: interdomain A; also called Syk interdomain A GST-fusion protein; not shown: glutathione S-transferase (GST) fusion partner
Kind of assay: direct binding assay with GST fusion of Syk interdomain A. As to the method:
as §1, §2

The target of a further assay is T7, Zap-70(1-162) (human, UniProt P43403 1-162).
T7 construct: range 1-162; also called N-terminal SH2 domain of Zap-70 with its intact IA domain
Description: binding of Zap-70 truncation mutants to the β3 tail. How it is done:
as §2

A further assay deals with T8, Zap-70(1-132) (human, UniProt P43403 1-132).
T8 construct: range 1-132
T8 sequence (looked up): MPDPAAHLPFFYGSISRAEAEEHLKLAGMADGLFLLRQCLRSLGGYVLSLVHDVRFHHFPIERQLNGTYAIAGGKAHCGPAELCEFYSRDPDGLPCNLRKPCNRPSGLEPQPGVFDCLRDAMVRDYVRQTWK
The assay is described as above. As to the method: as §2

The target in assay [5] is T9, Syk protein tyrosine kinase (wild type) (UniProt P43405 1-635).
T9 construct: the printed residue numbers (K402, R195, R42, Tyr348) fit it; also called wild-type Syk; Syk kinase
Description: affinity chromatography of cell lysates on tail model protein beads, immunoblot. The source says: (§3) The model protein mimics are designed with an N-terminal heptad repeat sequence joined to the integrin cytoplasmic domains. The repeats form a coiled-coil homodimer that dimerizes the integrin tails (Pfaff et al. (1998) J Biol Chem 273:6104-6109). These protein mimics are also describied in U.S. patent application Ser. No. 90/320,907, filed May 27, 1999 and U.S. patent application Ser. No. 90/323,447, filed Jun. 1, 1999, the teachings of which are herein incorporated by reference in their entirety.
(§4) Following incubation, beads were washed and bound protein was analyzed by immunoblotting.

In another assay the target is T10, Zap-70 (human, UniProt P43403 1-619).
T10 construct: also called Syk paralog
T10 sequence (looked up): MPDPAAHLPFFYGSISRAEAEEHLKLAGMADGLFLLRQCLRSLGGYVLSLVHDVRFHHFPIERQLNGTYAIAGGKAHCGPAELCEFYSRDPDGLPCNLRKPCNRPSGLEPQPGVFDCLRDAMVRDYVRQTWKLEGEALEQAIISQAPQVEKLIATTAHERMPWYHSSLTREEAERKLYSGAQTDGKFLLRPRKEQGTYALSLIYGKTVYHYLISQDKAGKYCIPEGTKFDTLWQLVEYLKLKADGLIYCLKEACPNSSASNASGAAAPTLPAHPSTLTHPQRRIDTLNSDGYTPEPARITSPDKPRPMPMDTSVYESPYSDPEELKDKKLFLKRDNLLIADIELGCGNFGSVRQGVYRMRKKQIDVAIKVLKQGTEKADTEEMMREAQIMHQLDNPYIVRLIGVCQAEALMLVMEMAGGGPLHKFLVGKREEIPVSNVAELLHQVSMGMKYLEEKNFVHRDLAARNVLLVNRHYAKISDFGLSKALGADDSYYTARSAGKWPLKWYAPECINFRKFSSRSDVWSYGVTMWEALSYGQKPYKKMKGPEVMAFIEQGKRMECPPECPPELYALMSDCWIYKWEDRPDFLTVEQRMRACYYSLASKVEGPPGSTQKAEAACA
The description is as above.
From the text: as §3, §4

For assay [6], the target named is T1, GST-Zap-70(1-337). Kind of assay: direct binding of GST fusion protein to tail model protein beads, immunoblot. How it is done:
as §4, §2
For orientation: In western blotting, separated proteins are transferred to a membrane and probed.

In the next assay the target is GST-Syk(6-370) (UniProt P43405 6-370). The description is as above. As to the method:
as §4, §2

Assay [7] addresses T9, Syk protein tyrosine kinase (wild type). Kind of assay: binding to β3 tail deletion mutant in vitro. As to the method: as §2
For assay [8] the target is unchanged. Kind of assay: cell-based or functional assay.

As to KLLIHLSDLREYRRFEKEKLKSQWNNDNPLFKSATTTVMNPKFAES (other, UniProt P05107 724-769, looked up, not shown: small tags and cut ends, not fully specified, domain: cytoplasmic domain) [β2 integrin cytoplasmic domain model protein], the binding result with GST-Zap-70(1-337) [1] is on record as “binds”. Also, the affinity in [2], expressed as Kd, was 36 nM.

B1: integrin β3 cytoplasmic tail model protein (other, UniProt P05106 742-788, looked up, not shown: a dimerising Fc or GST)
chain: KLLITIHDRKEFAKFEEERARAKWDTANNPLYKEATSTFTNITYRGT
modifications: also: coiled-coil homodimer
notes: domain: cytoplasmic domain; Coiled-coil homodimer; also called β3 tail; β3 tail model protein
On to B1, for which the binding result with GST-Zap-70(1-337) [1] is “binds”; in the assay with GST-Zap-70(163-254), “no binding”; in [3], “no binding”; with GST-Zap-70(1-103), “binds”; in the assay with GST-Syk(163-270), “no binding”; in [4], “no binding”. In addition, the binding result with Zap-70(1-162) and with Zap-70(1-132) was “binds” in each case. This molecule returned a Kd in [2] of 24 nM.

B2: integrin β3(Y747A) cytoplasmic tail model protein (other, UniProt P05106 742-788, looked up, not shown: small tags and cut ends)
chain: KLLITIHDRKEFAKFEEERARAKWDTANNPLAKEATSTFTNITYRGT
modifications: not fully specified
notes: domain: cytoplasmic domain; also called β3(Y747A) tail; point mutant of the β3 tail (Y747A)
Regarding B2, the binding result is on record as “no binding” in assay [5], “no binding” with Zap-70, “no binding (tested: 5 nM)” in the assay with GST-Zap-70(1-337) [6] and “no binding (tested: 5 nM)” with GST-Syk(6-370).
Turning to KLLITIHDRKEFAKFEEERARAKWDTANNPLYKEAT (other, UniProt P05106 742-777, looked up, not shown: small tags and cut ends, not fully specified, domain: cytoplasmic domain) [β3(752X) cytoplasmic tail model protein], the binding result in [7] is reported as “no binding”.

B3: β3(759X) cytoplasmic tail model protein (other, UniProt P05106 742-784, looked up, not shown: small tags and cut ends)
chain: KLLITIHDRKEFAKFEEERARAKWDTANNPLYKEATSTFTNIT
modifications: not fully specified
notes: domain: cytoplasmic domain; C-terminal truncation
Regarding B3, the binding result in assay [7] is “no binding”.
Take KLLMIIHDRREFAKFEKEKMNAKWDTGENPIYKSAVTTVVNPKYEGK (other, UniProt P05556 752-798, looked up, not shown: small tags and cut ends, not fully specified, domain: cytoplasmic domain) [β1A integrin cytoplasmic domain model protein]: the binding result in the assay with GST-Zap-70(1-337) [1] is reported as “binds”.
As to DGV[pY]TGLSTRNQET[pY]ETLKTCR [dually-phosphorylated FcεRIγ chain ITAM peptide], in assay [8], the “activation of Syk kinase in vitro (EC50)” value is 1000 to 2000 nM.
